Assay: label from the status in PepcDB records

**Q.** For “MGNGLMSKKKKKKNNKYKKKRPNVSRNCDWSKFCSDVLRKIFETLKSPIDSHRAFARISIQFGKHARTSLHVHGDSYTKVILPPSGNCLLMVDRRLKFYILNLLTRTTINLPSMSLIRGGQVFFKPQNEWSNDSGCFFGPSRNGNVSYDFDSVEWKNSVAVLWINETTGDYVVAWTFIQHYLFFYKSGYWSWCNLNHNGKSLVVFDMACENNKLYLYTANHHIRIFDFSGAYPMEKKTENPYWKYLFNAVEEPWEYVWKRKIAIQKSSGEVLIILSLKQVFYEAERLLFYIFKMNLESFKWERVYSLGDEMLVFGQGVTIPTALKDLGDGIKSDSIYFVDKDVWPDHQDHDRRVSNCGVFNIATSKIKWPTKKYRSVNETQWFVLGVAY”, which protein production is on record?
**A.** The protein production was “failed”.

**Q.** Which protein production does the source give for “MSQTRDLQGGKAFGLLKAQQEERLDEINKQFLDDPKYSSDEDLPSKLEGFKEKYMEFDLNGNGDIDIMSLKRMLEKLGVPKTHLELKKLIGEVSSGSGETFSYPDFLRMMLGKRSAILKMILMYEEKAREKEKPTGPPAKKAISELP” here?
**A.** The protein production was “failed”.

**Q.** For “MSYFYKHCLKFSLVGLLGLLSVQLDARSFVDGDLDIQKFSYEDSLLKKGDPNGVHKVQVRDYKGKMQEAEIHSEIRIALKPGVKKEVKKGKIYSAQINDGMCYAFRMLQTGDNTTGLDSKEFPKQSREKKGRVITLIGKGEVPYLILETDCQVGDIAKISLVGNFDGTGFLTEYKFKDAKPIY”, which protein production is on record?
**A.** The protein production was “failed”.

**Q.** Which protein production does the source give for “MPHRKNTFSSWRSRLAQKAVHAGWAWVQRTGSVTAAHPGRFRFGALGTGTRLAFPLGTVFGEPWIQVGAHCIIGEQVTLTAGLMPDLDLGPEPILRIGDGVVLGRGSHVIADTTVTIGSDCYFGPYVYVTSTNHSYDDPHQPIGKQWPRMDPVEIGPGCWIGTGAVILPGARIGRNVVVAAGAVVRGAVPDHAVVAGAPARVVRRWTPAEGWQPPLRTPAPVPIPDGITPGQLRELSKLDDEAVARLAELDDPERAAGRLAEPAAEG” here?
**A.** Its protein production is “failed”.

**Q.** For “MITIDALGQVCPIPVIRAKKALAELGEAGGVVTVLVDNDISRQNLQKMAEGMGYQAEYLEKDNGVIEVTIVAGEGCAVETSGTAADSGLVVAIGRNTMGEGSEELGRILLKGFIYSLRELTPPPARLLFFNSGAHLTSKDSNSIEDLKAMAAQGTIIQTCGTCLNYYGITEQLAVGQVANMYDIVTAMTEAKRLINI”, which protein production is on record?
**A.** The protein production was “failed”.

**Q.** For “MKAVANRYYVLCQEKVFIRSLLSGFFLLFISFLIMNFAGKYASLMAGNPVNDLILDNLPLRDVTLFHVNAAIIFWTIFTIYTLLNPAFIPFITKSAALFILIRCAFISMTHLGAPPNQLSIPDNFSSLVLFDGDLFFSGHVGGPFLMMLIFWNKTTLRYICLAAAVFFAYTVLIGHIHYSIDVFAAPFITYGIFHIGQFLFASDYQRLKSELTSSTGN”, which protein production is on record?
**A.** Its protein production is “failed”.

**Q.** For “MDVIKISPRGYCYGVVDAMVIAKNASLDKSLPRPIYILGMIVHNKHVTDAFEEEGILTLDGSNRLDILKQVDKGTVIFTAHGVSPEVRRIAEEKGLVAIDATCPDVTKTHNLILEMKEKGYHVIYIGKKGHPEPEGAVGVAPEIVHLVETEEDVKNLDIQSEKLIVTNQTTMSQWDVHDIMELVKEKYPHVEYHQEICLATQVRQEAVSEQAKKADLTIVVGDPKSNNSNRLAQVSEEIAGTKAYRIGDLSELKLEWLKGVNTVAVTAGASTPTPITKEVIRFLEQFDHE”, which protein production is on record?
**A.** The protein production was “failed”.

**Q.** With “YAMSIYAAQHDVRIVNPYFVPTSSIRKALKRALNRGTKVEIMISSKSDIPFTPDASLYAVQKLMKKGAMIYLYNGGFHHSKIMMVDDLFCTVGTANLNSRSLRYDYETNAFIFDKDITQQLNDVFEADMLHCTRLTPEMWKQKSAWKKFKCWFANLFTPFL” as the sequence, how does the protein production read?
**A.** The protein production was “failed”.

**Q.** Which protein production does the source give for “MKAALHNLGCKVNSYETEAMEQMLIAAGYEIVPFCEDEKADVYVINTCSVTNIADRKSRQMLHKAKKQNPNAIVVAAGCYVQARGDELAADDMVDIVIGNNRKNRLVEIINDYIGNNSNNEAVVDIAKTHEYEELNIYDVCEHTRAYIKVQDGCNQFCSYCIIPYTRGRVRSRRPEDVTAEVRRLVEKGYKEFILAGIHLSSYGIDFEAPCDEAVDYRAANMPGSRLLELIEAVCSVEGVKRLRLGSFEPRILTEAFVKRMAELEPVCPHFHISLQSGCDATLKRMNRRYTADEYEESCKLLRKYFPNAAITTDVIVGFPQETDEEFAITKEYLERIHFYEMHVFKYSRRKGTAADRMDGQVPEPVKTARSAGLLELEKRMSREYRESALGSIQEVLFEEVAGTCDDCGTSVITGHTKTYINVHVKLPADMSLEYINKICNVKLEHLSDDGEWVNGTLCG” here?
**A.** Its protein production is “failed”.

**Q.** With “MATTPRVDAGGGSSMFAAVPLLALPVIVYNLVALTLTGGFKATDATARMNEALFTIHMTSRTDWAVSLGDLLMAASLVVLFVELLKSTTSRKIAIINHSLSMVLFILCLVEFLLAPAFATSTFFLITLMVLLDVLAGFIVTIVAARRDVDFGDN” as the sequence, how does the protein production read?
**A.** Its protein production is “failed”.

**Q.** Which protein production does the source give for “MGAVSAFSWASSGRLHALEVFVMKIPKTYDEIMEHFGGLIDEVTAELLESYAKGETVRVSEALAKSGRVAVEGVVLRVFPVRHFSKNGRSGKVGSVVIQDDCTVRVNFWNEAAEIIEAGDIVEGARIKVRGYARGEEIHVNSLSEVEVFVDFVNISELDEKVGERVNVKGFVSGLGEPEKANEIYISDETGRVKVLLENESLYYAVDIGSYVEIYNALAGEDGIYVDRNSRFSVGELEHHHHHH” here?
**A.** The protein production was “failed”.

**Q.** With “MSHTAEIPMVPGSESPLELKPLKAVDPKAVYHRRAQRLLSLAKDSPLADYFELCRRVVAIQARLAAEADFGQLLAWGKDEAIPLSHLGSEADSYWQGLLQQLLSDLLPQVGEDLARVLRLLMQQSPEQLTSWGASLRQGHMSAVPARFSLFIWAAMGVYWSHWAPMVIKRIDQRKVAQQNLCPICGSHPVASVIVDQPRAGLRYLHCSLCESEWHYIRAHCTSCGQDKGTTLWSFDDTQAQVRIESCDECHGYTKMMFVEKSPLMDVVADDLATLMLDSELNAKGFGATTVNPLLLAHETEQ” as the sequence, how does the protein production read?
**A.** Its protein production is “failed”.

**Q.** With “MRKELCRNFQRGSCRYGENCRFLHPQQAKPNNPFGFGTQNQQQQQQQQQQNSSNPFGFGVQSGGSSRPNQFQNTWSRTASTPTGGGAAASTQQTGKQTQPADHKCTDPAACKRVMQDDFKNERPMWKLTCYGHWKYFPCDVTGDISYEELRAVAYEEAKRGIPLQSIVERERNLQNSKIAEFENFLRNPYKGSVTANQSPFAATTPSIFPQSSQINSPSPAFSGFNQQTAFSNTNAGGLSSSGPPNAFASFNQQTTFPNTNAGGVSSSGPPNPFASFTQQSNNQQTAFSNTNAGGLSSSGPPNAFASFNKQPNAFSVNTPQPVPSGPSGFQTNPSTTFKPASFGPGPGFATTPQNNNIFGQSTPTPATNTSQNNQTAFNFNVPVASFTAPAINTTNTSSGTELQIGGDPVDSSIWLKEKWNPGEIPEQAPPDAFV” as the sequence, how does the protein production read?
**A.** The protein production was “failed”.

**Q.** With “MSEPHRDTKIGQVLMNRYQLTELIGKGSMGRVYRAEDILLGGVPVAVKFLSQTLLNDRMKTRFAQEARAGALLGQKSMHVVRVLDYGMNNEEIPFYVMEFLEGENLSDLLLEEPLPLSRFLRIARHMCLGLQVAHEGIIIEGQKCPIIHRDIKPSNVLVIQDGTMGELAKLLDFGIAKFLGDVPEKGQTSSFMGTLAYCSPEQIEGRELDHRSDIYSLGITMYELLTGKMPIQAESHSIGSWFKAHHFQKPIPFNVASPGLHLPPALEELIMACMAKSPSDRPQNVAEIIKVLTALEDQFGSTRVTQPGVEVGAKVSQPLERQSQPPVALATVEEVCWQSVWPADKPVAEIVFPMPLYAQRESAASLWVMLPRSEIDRRMLNLRYNQFLFTTSPHPMILWITAIYDPQQGPRWLPCYLDMKLPRNQELCLLLSETGYYPLLFFSLEDPQHCINVRTFTIATFQRQLLRDWLQTSKNLPSSAPAVVSRNLLKAEFENYKPQILAKLENVKMATVID” as the sequence, how does the protein production read?
**A.** Its protein production is “failed”.

**Q.** Which protein production does the source give for “MIITIARQCGCGGHEVARILANKLGMELFDKKKLLEEANQLGQAEEHSNFFNEVPINSLLYGIAMGFGNTKPMDKSLKLVKAITENKDAIIIGRCANIIYKDSKDVTSVYLFADKEFRIKYLMERDGISEKEAEKYIKEVDEKRTSFHKYCTDTVWGDAKEYQLCLDTGKIGFEKTAELIMNYINAKKES” here?
**A.** Its protein production is “failed”.

**Q.** With “MNIDEIERKIDEAIEKEDYETLLSLLNKRKELMEGLPKDKLSEILEKDRKRLEIIEKRKTALFQEINVIREARSSLQK” as the sequence, how does the protein production read?
**A.** The protein production was “not failed”.

**Q.** Which protein production does the source give for “MWTRLLPFLAWLPGLHRGMLGREAWVGLNGAILALPQSMAYALIAGLPAEYGLYAAMLPVAIACLWGSSRYLVSGPTAAISVLLFSSVAPLAPLGSPQYVQAVLLLTFLAGAFQWLLGVLRVGSLVNFVSHSVMLGFTLGAALLIVLGQLPYLLGLAASGEGAAPGNGWRLLARFAEFDGPSLLVGGFSFALSLLVRRLRPRWPALLLGLLGGATLVWALPGTFASVAHVQALSSALPGWSPLVFDSRSILDLLPAAVACGMLGLVTSLSIARALAARQGDAFDANQEVRAQGLSNLLGPWLSASLSAGSFTRSGLNLEAGARSPLAGAFSALWVALLAVLGARLIEHVPLPAMAAGILLIAWGLIDRPALRALYRSGRAECLVAGLTALATLLLPLQNAIYAGVLASLVFYLRRTSTPRVLRQRNDEEEVLRIEGSIFFGACDYLQRLMRQCDRPRLVLDARQVNFIDFAGAVLLQQEARRLHAEGRRLVLRHARPQVREALGRQADEGCRLHYEG” here?
**A.** The protein production was “failed”.

**Q.** For “ADDFAMEMGLACVVCRQMTVASGNQLVECQECHNLYHQDCHKPQVTDKEVNXPSRGVVLCPGTRQMKRMAQKNQK”, which protein production is on record?
**A.** Its protein production is “not failed”.

**Q.** Which protein production does the source give for “MAKLRHSRFQARKWSTLMLVLFMLFMLTIVLLMLLAFGVFSLPINNDESSPIDLSYFRRAATERSEGLGKRGDQWTEVLSWEPRAFVYHNFLSKEECEYLISLAKPHMVKSTVVDSETGKSKDSRVRTSSGTFLRRGRDKIIKTIEKRIADYTFIPADHGEGLQVLHYEAGQKYEPHYDYFVDEFNTKNGGQRMATMLMYLSDVEEGGETVFPAANMNFSSVPWYNELSECGKKGLSVKPRMGDALLFWSMRPDATLDPTSLHGGCPVIRGNKWSSTKWMHVGEYKI” here?
**A.** The protein production was “failed”.

**Q.** With “MKFFQRTVLEPAYQGAQLHPGKLSGIYQNEILCNSLFHHYKQRTLKLGRELESRLKHLYHLVRMALPGTVSANTTRRSPANSIHTEVQIDSRTDTHLPQVSDDEDLRWIRTGLPHQYHAYLAIDRLKSSHHLAGQSVLCIGGRAALYPNYHQLIEAAGGHFMVFRGGAQDNSECLLALLARVDSIICPVDCINHEDFFTVRRYCQRTGKNCVMLERSDLVTFGKAVETLARGDCHNSETLEHHHHHH” as the sequence, how does the protein production read?
**A.** The protein production was “failed”.

**Q.** For “PGRPTMMISTTAMNTALLQWHPPKELPGELLGYRLQYCRADEARPNTIDFGKDDQHFTVTGLHKGTTYIFRLAAKNRAGLGEEFEKEIRTPEDL”, which protein production is on record?
**A.** The protein production was “not failed”.

**Q.** For “MFSLRSALILALLIIASLVNTKYSLPLALLVVGLTYLLDEQRLLPYASIVSFLIPMVYPLETSYVPMIYALSSIGILASKYSRLLSSVLIILGVSILPLGDVQKYLILYLTAFLLLGVDIRGTLGGGIIMLILATQGYVPYDLAFYTILFGVLSLTTLYKIKVTRYHAIAILSAIFPLLYSYFPLPSFLVSLGSALVFPPALFSTSILLYVEGFKQGIYGLLLILLSLVYNRYEKYFRTISMVLVSAGLSIFSSVFPPLILILIVIYFLEKGKVLTYSQYFLIPLSLYLLIQGSYQSLVYSSIALIIVSTLRMILRTTDSNRFKKLVKLMNARIVGGIISLLIEIILFFIALQYLVFPLSYVALTLSVIYAVFIFRERNAFVHFSLSAVLALFFNPVFALGGIKLKDSLNVIVVALTIIMGILFSHTLYFSIISVFLSVSYLLQKFDIHDLVPLSVISIVSIIPGITWTYVLPPILLSFSYLITKKYSYELGLSSMFCIIILIHYLIV”, which protein production is on record?
**A.** Its protein production is “failed”.

**Q.** For “MFSFFSRWYQERFSDPQAVTLLAILVGLALVLYFAGGLLAPLLVALVLAFLLEWPVAQMLKLGINRTTAASLVLIIFLGIVVLLTFGLIPSVWRQGVSLMTDLPSMIDKGLQTVQGLATQYPQFISVEQLNLMVAELKKLLDTQHVLDIAKQLIGYSASLLVLMVYAILVPLLVFFFLKDKDQLISGSKRFFPTNRQLARKVWFEMHQQIFNYIRGKVIEIVIVGVASYILFAFMGLSYSALLGVLTGLSVLIPYVGATLVTLPIMLVAFFQWGFSSEFGYLMLGYGIIQALDGNVLVPILFSDAVDLHPVIIIAAVLVFGGLWGVLGVFFAIPLASLVKAVINAWPKTEIEPSASAPPQK”, which protein production is on record?
**A.** The protein production was “failed”.

Source: a protein production outcome set (Wang et al. 2014)
